System: MS2 coat protein
Experiment: apparent KD of MS2 coat protein; designed switch direction (-1 OFF switch, 1 ON switch): -1; higher = weaker reporter binding
Procedure, shortened: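 The reported apparent KD is a per-design median over clusters, from curve fits of normalised cluster fluorescence. Protein titrations used SNAP-549-labelled MS2 coat protein, doubled from 0.7 or 1.5 nM to 3 µM, in Tris-HCl pH 7.5 buffer with KCl, MgCl2, BSA, DTT, tRNA and Tween-20, with no input, 200 uM small-molecule ligand, or an oligonucleotide input. The RNA switches were transcribed on Illumina chips by stalled E. coli RNA polymerase.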

[1] = input ligand: microRNA oligo, concentration not stated
[2] = Eterna round: R95, input ligand: FMN 200 uM
[3] = Eterna round: R95, input ligand: microRNA oligo, concentration not stated
[4] = Eterna round: R95, input ligand: none

Row | Sequence | apparent KD of MS2 coat protein (input ligand: FMN 200 uM) [µM] | apparent KD of MS2 coat protein (input ligand: none) [µM] | apparent KD of MS2 coat protein [3] [µM] | further results
1 | GAAAACGCAGAGGAUAUUUCAGAUCAAAGCUGCAAAGAAGGCUGCACAUGAGGAUCACCCAUGUGGUCUUUAAA [Mod of Quesina - Jieux - Exclusion 6] (Eterna round: R97, puzzle: Exclusion 6) | 0.286 | 0.0207 |  | 
2 | GAAAACGCAGAGGAUAUUUCAGAUCAAAGCUGCAAAGAAGGCUGCACAUGAGGAUCACCCAUGUGGUCUUUAAA [Quesina] (Eterna round: R96, puzzle: Exclusion 6) |  |  |  | apparent KD of MS2 coat protein [1]: 0.016 µM
3 | GAAAACGCAGAGGAUAUUUCAGAUCAAAGCUGCAAAGAAGGCUGCACAUGAGGAUCACCCAUGUGGUCUUUAAA [Quesina] (puzzle: Exclusion 6) |  |  | 0.0178 | apparent KD of MS2 coat protein [2]: 0.167 µM; apparent KD of MS2 coat protein [4]: 0.0164 µM
4 | GAAAAGGUAGGAUAUACGAAAAAAAAGGGUAGAAAUAAAACACAUGAGGAUCACCCAUGUAGAAGGACCAAAAG [salish99_ex2_r3_076] (puzzle: Exclusion 2) |  |  | 0.0209 | apparent KD of MS2 coat protein [2]: 0.0745 µM; apparent KD of MS2 coat protein [4]: 0.0155 µM
5 | GAAAAGGUAGGAUAUACGAAAAAAAAUGGUAGAAAAAAAACACAUGAGGAUCACCCAUGUAGAAGGACCAAAAG [salish99_ex2_r3_071] (puzzle: Exclusion 2) |  |  | 0.0246 | apparent KD of MS2 coat protein [2]: 0.023 µM; apparent KD of MS2 coat protein [4]: 0.0179 µM
6 | GAAAAUGUGGAGGAUAUCGACUUCGAAAGAAGUCGAGAAGGCCACACAUGAGGAUCACCCAUGUGAUGCCUAUA [Omei Ex6 H8] (Eterna round: R97, puzzle: Exclusion 6) | 0.774 | 0.23 |  | 
7 | GAAACGCGAGGAUAUACAGACGAGUCCAUUACGUGUCUCGGACUUGAGGAUCACCCAAGUAGAAGGCGUCUCAG [salish99_ex2_r4_631] (Eterna round: R97, puzzle: Exclusion 2) | 0.0248 | 0.0276 |  | 
8 | GAAAUACAUGAGGAUCACCCAUGUAAGGAUAUGCUAGCGGUCGGCUGACUGACUGCUAGCAGAAGGUACAUGAU [Mat - Mod of JL D81] (puzzle: Exclusion 1) |  |  | 0.0675 | 
9 | GAACUGAAGCAAAGCUUUAGUCGUACAUGAGGAUCACCCAUGUAGGAUAUGGUAGGCAAAGCUUACUAGAAGGACAGAGUGAUC [Mat - Exclusion NG 3 - Mod of JL - D70] (Eterna round: R96, puzzle: Exclusion NG 3) | 0.338 | 0.336 |  | apparent KD of MS2 coat protein [1]: 0.336 µM
10 | GAAGAAGAGAGAAUAGAAAACAUGAGGAUCACCCAUGUGAGAAGAUGAGGGUGUAGCAGGCUUUUUGCUCGUCUUAU (puzzle: Sensor v3, turn-off variant 1) |  |  | 0.119 | apparent KD of MS2 coat protein [2]: 0.0325 µM; apparent KD of MS2 coat protein [4]: 0.0312 µM
11 | GAAUAGAGAGGAUAUGCGAAGUAGGUAGUACGAUAUAUCUGACAUGAGGAUCACCCAUGUAGAAGGCUCAGAUC [EX2 #5] (Eterna round: R97, puzzle: Exclusion 2) | 0.0344 | 0.0403 |  | 
12 | GAAUAGGCAGGAUAUACAUGAGGAUCACCCAUGUGCUUGCGCUAGGCACGUGAACAACGUAGAAGGGCCUAGAC [ChP 13.04.2015 #11] (puzzle: Exclusion 3) |  |  | 0.0121 | 
13 | GACAGACGAGCGUGAGCCGACAUGAGGAUCACCCAUGUGCUCGUCUUAUAACGUACUGUCACGUUAGUGAUAGUGCG [Sensor v3, turn-off variant 1 (MOD of Eli's v1-13 v.4)] (puzzle: Sensor v3, turn-off variant 1) |  |  | 0.0427 | apparent KD of MS2 coat protein [2]: 0.0543 µM; apparent KD of MS2 coat protein [4]: 0.0567 µM
14 | GACAGUCGAGGAUAUACGAUCGUGCUUCGGCACGUAAGAUCACAUGAGGAUCACCCAUGUAGAAGGCGACUGUC [Mod 6 - Jieux - Exclusion 2] (Eterna round: R97, puzzle: Exclusion 2) | 0.234 | 0.0317 |  | 
15 | GACAGUUCGGAGGAUAUCCAGAACUAAGAACAAGGAGAAGGCCGAACAUGAGGAUCACCCAUGUGUGUUCCCAU [Isdiorzaar] (puzzle: Exclusion 6) |  |  | 0.0307 | apparent KD of MS2 coat protein [2]: 0.0194 µM; apparent KD of MS2 coat protein [4]: 0.027 µM
16 | GACAUCGCAGGAUAUUAGGGUUUGUACAUGAGGAUCACCCAUGUUAAUUGGGUUAAUGUUUAAGAAGGGCGGUGUC [JR_EX5_Sub017] (Eterna round: R97, puzzle: Exclusion 5) | 0.528 | 0.383 |  | 
17 | GACAUGAGGAUCACCCAUGUAACCUCAUGUAGGAAGGAGAGUAAGGAUAUACAUGAAGGAAUGAAGUAGAAGGUGCAUAGAGAG [Default title] (Eterna round: R96, puzzle: Exclusion NG 3) | 0.605 | 0.586 |  | apparent KD of MS2 coat protein [1]: 0.377 µM

Row | Sequence | apparent KD of MS2 coat protein (input ligand: FMN 200 uM) [µM] | apparent KD of MS2 coat protein (input ligand: none) [µM] | apparent KD of MS2 coat protein [3] [µM] | further results
18 | GACCAGGCAGGAUAUACAUGAGGAUCACCCAUGUGUCUGCGUUGGGCACGUGAACACGGUAGAAGGGCCUUGAC [ChP 13.04.2015 #15] (puzzle: Exclusion 3) |  |  | 0.0128 | 
19 | GACCAGGUAGGAUAUGCUGGGUCGGACUUGAGGAUCACCCAAGUGGCCAAAGUGCGUCCCGCAGAAGGGCCGAAAA [Inanorxeti] (Eterna round: R97, puzzle: Exclusion 5) | 0.0816 | 0.827 |  | 
20 | GACGACUCGUCAGGAUAUGUAAACGAGCAAUUGACAGAAGGGACACUGUCGAGGGUACACAUGAGGAUCACCCAUGUACUCGUC [Eternabot solution 40] (Eterna round: R96, puzzle: Exclusion NG 1) | 0.0124 | 0.0161 |  | apparent KD of MS2 coat protein [1]: 0.0103 µM
21 | GACGAGGGAGGAUAUGCACGAGGGAUAUCUGACAUGCCUAUACAUGAGGAUCACCCAUGUAGAAGGCCCAGAUA [Veorleerma] (puzzle: Exclusion 2) |  |  | 0.0119 | 
22 | GACGUGUAAGGAUAUGAUGUUGCAAACAAGACCCUUAAUCAUUAGAAGGUACAUGAGGAUCACCCAUGUAGGGU [Eternabot (L2) Solution 100] (Eterna round: R97, puzzle: Exclusion 4) | 0.129 | 0.14 |  | 
23 | GACUAAACACGAGGAUAUGCCUGGGAAGAACAGGCAGAAGGCGUGACAUGAGGAUCACCCAUGUAGCCGGGCUAUUCUCGUGUG [Orlaes] (Eterna round: R96, puzzle: Exclusion NG 1) | 0.0354 | 0.0293 |  | apparent KD of MS2 coat protein [1]: 0.0208 µM
24 | GACUGCUGAGGAUAUACAUGAGGAUCACCCAUGUGCUUCAGCUAGGAGACUAGCAUUGGUAGAAGGUAGUAGUC [LRO-Excl3-03] (puzzle: Exclusion 3) |  |  | 0.0103 | 
25 | GACUUCUGAGGAUAUACAUAGAUUUACAUGAGGAUCACCCAUGUUCCUCUAUGUAUAAAUGUAGAAGGCAGAAGAG [Mat - Exclusion 5 - JL Mod - D65] (Eterna round: R97, puzzle: Exclusion 5) | 0.0707 | 0.0197 |  | 
26 | GAGAAACAUGAGGAUCACCCAUGUGAGGAUAUGAAAAAGAAAAGAAAAGAAAGAAGAAUCAGAAGGCACAAAGA [salish99-ex1_r3_084] (puzzle: Exclusion 1) |  |  | 0.0279 | apparent KD of MS2 coat protein [2]: 0.0281 µM; apparent KD of MS2 coat protein [4]: 0.0389 µM
27 | GAGACACAUGAGGAUCACCCAUGUGAGGAUAUGCGAAGGACCAAAUUAAGAAUUAAAGGCAGAAGGCACAUAAA [Exclusion 1 V4] (puzzle: Exclusion 1) |  |  | 0.0355 | apparent KD of MS2 coat protein [2]: 0.0368 µM; apparent KD of MS2 coat protein [4]: 0.0293 µM
28 | GAGAUACAUGAGGAUCACCCAUGUGAGGAUAUGAGUCAGUCACGGUGACGUGGCUGACUCAGAAGGCACAAAGG [Mat - Exclusion 1 - JL Mod - D35] (Eterna round: R97, puzzle: Exclusion 1) | 0.0889 | 0.15 |  | 
29 | GAGAUGUGAGGAUAUCUAGACCGCGGAAGAGCUGCGGUCCGAGAGAAGGCACAUGAGGAUCACCCAUGUGAUGA [Attere] (puzzle: Exclusion 4) |  |  | 0.0384 | 
30 | GAGCCAACAGGAUAUACAUGAGGAUCACCCAUGUGAAUUCGCUACACAGGGAUGAACAGUAGAAGGGUUGGUAU [Eternabot (Original) Solution 49] (Eterna round: R97, puzzle: Exclusion 3) | 0.165 | 0.229 |  | 
31 | GAGCUAUGAGGAUAUGCAUAUAUGCGGUUUCGUGUGGUACUACAUGAGGAUCACCCAUGUAGAAGGCGUGGCAG [Mat - Exclusion 2 - Mod of JL - D79] (puzzle: Exclusion 2) |  |  | 0.0132 | 
32 | GAGCUGUGAGGAUAUACAUGAGGAUCACCCAUGUUAAGGAAGUGGUGUAUAUUGUAGUGUAGAAGGCACUUGUG [JR_Ex3_Sub025] (Eterna round: R97, puzzle: Exclusion 3) | 0.6 | 0.306 |  | 
33 | GAGGAGCAAGGAUAUACGAGGAUAUGGAAGGUUGGAGAGUGACAUGAGGAUCACCCAUGUAGAAGGUGCGAGGG [JR_Exclu2_Sub097] (puzzle: Exclusion 2) |  |  | 0.0434 | 

Reference: the supplement of paper PMC9170038
